# Data published in IntAct's records for PubMed 25616961.
# B1: Heterogeneous nuclear ribonucleoprotein A1 (Homo sapiens), P09651-2 (parent)
# chain: MSKSESPKEPEQLRKLFIGGLSFETTDESLRSHFEQWGTLTDCVVMRDPNTKRSRGFGFVTYATVEEVDAAMNARPHKVDGRVVEPKRAVSREDSQRPGAHLTVKKIFVGGIKEDTEEHHLRDYFEQYGKIEVIEIMTDRGSGKKRGFAFVTFDDHDSVDKIVIQKYHTVNGHNCEVRKALSKQEMASASSSQRGRSGSGNFGGGRGGGFGGNDNFGRGGNFSGRGGFGGSRGGGGYGGSGDGYNGFGNDGSNFGGGGSYNDFGNYNNQSSNFGPMKGGNFGGRSSGPYGGGGQYFAKPRNQGGYGGSSSSSSYGSGRRF
# Variants of: B1
# Conditions: with ubql2_human UBQLN2, Q9UHD9
# Sequence of ubql2_human UBQLN2, Q9UHD9 (Q9UHD9 whole entry): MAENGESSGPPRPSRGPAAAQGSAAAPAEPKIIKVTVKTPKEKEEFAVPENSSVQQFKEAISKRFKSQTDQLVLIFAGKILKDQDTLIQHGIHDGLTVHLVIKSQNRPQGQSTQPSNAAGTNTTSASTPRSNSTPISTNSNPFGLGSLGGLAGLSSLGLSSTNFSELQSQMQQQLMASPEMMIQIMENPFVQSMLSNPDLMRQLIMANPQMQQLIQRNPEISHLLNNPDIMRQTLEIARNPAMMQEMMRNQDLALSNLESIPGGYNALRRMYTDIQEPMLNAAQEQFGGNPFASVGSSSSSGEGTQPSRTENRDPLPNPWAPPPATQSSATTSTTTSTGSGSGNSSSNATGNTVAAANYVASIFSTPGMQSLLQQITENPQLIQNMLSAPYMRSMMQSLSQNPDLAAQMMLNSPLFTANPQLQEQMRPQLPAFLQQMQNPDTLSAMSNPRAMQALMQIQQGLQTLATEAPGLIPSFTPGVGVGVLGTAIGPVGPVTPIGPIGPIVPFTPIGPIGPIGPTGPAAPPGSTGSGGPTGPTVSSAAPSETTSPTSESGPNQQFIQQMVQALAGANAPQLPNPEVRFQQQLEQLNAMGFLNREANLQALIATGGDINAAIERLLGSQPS
row,effect of a mutation on the interaction,Variant
1,decreasing interaction,D262V
